The source of these data is patent US20160340421A1 (Regeneron, published 2016).

Ends that are not written are not given here. * marks the point of attachment. Biotin = O=C1N[C@H]2[C@H](CS[C@H]2CCCCC(=O)*)N1

Test [1] has as its target T1, Human GDF8 homodimer (mature human Growth and Differentiation Factor-8) (human, UniProt O14793 267-375).
T1 sequence: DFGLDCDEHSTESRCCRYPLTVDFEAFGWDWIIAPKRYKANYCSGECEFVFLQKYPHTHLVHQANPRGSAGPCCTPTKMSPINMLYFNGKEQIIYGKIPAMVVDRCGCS
As to the kind of experiment: cell-based or functional assay.

The target in a further test is T2, hGDF11 homodimer (human, UniProt O95390 299-407).
T2 sequence (looked up): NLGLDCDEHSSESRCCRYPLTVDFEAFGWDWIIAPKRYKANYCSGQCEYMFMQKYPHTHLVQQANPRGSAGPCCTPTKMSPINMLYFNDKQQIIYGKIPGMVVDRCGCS
As to the kind of experiment: GDF11-inducible luciferase bioassay, 0.4 nM GDF11 (legend: NB=no binding).

For test [2], the target named is T3, hGDF8 peptide 1 (1-14), C-terminal biotinylated (human).
T3 construct: also called peptide 1 C-term
T3 peptide: DFGLDCDEHSTESR-biotin
As to the kind of experiment: Luminex peptide beads. The source says: (§1) Fourteen peptides (Table 10) were generated from mature hGDF8 (SEQ ID NO:340). Unmodified peptides, N-terminal biotinylated peptides (N-term), or C-terminal biotinylated peptides (C-term) were used to test and localize antibody binding. Full-length hGDF8, hGDF11 and unmodified peptides were each individually amine-coupled to xMAP® Multi-Analyte COOH Microspheres (or beads). Each of the biotinylated peptides was bound to xMAP® Multi-Analyte LumAvidin Microspheres. Peptide-bound beads suspension were then mixed with an equal volume of blocking buffer (PBS, 1%13SA, 0.05% Tween20, 0.05% Sodium azide) and then distributed into a 96 well filter plate (Millipore, MULTISCREEN® BV). Control and test anti-hGDF8 antibodies, at 2.5 μg/ml were then added to the peptide-bound beads suspension and were allowed to bind to the beads at RT, overnight. The antibody-incubated beads were then washed twice with PBST (PBS+0.05% Tween20) and incubated with either Phycoerythrin (PE) conjugated anti-hFC or PE-conjugated anti-mFC antibodies at RT for 45 min. The beads were washed again and the antibody binding signal to various peptides were detected with either LUMINEX® 100™ or 200™ instruments.

The target in test [3] is T4, hGDF8 peptide 5 (48-69), C-terminal biotinylated (human, C-terminal biotin).
T4 construct: also called peptide 5 C-term
T4 peptide: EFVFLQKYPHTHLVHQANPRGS
Put plainly: Luminex peptide beads.
Excerpt: as §1

Test [4] deals with T5, hGDF8 peptide 6 (48-72), unmodified (human).
T5 construct: also called peptide fragment 48-72 amino acids
T5 peptide: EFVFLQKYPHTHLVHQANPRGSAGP
Put plainly: Luminex peptide beads.
Excerpt: as §1

The target of test [5] is T6, hGDF8 peptide 8 (52-72), unmodified (human).
T6 peptide: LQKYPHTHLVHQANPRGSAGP
As to the kind of experiment: Luminex peptide beads.
Excerpt: as §1

The target in test [6] is T7, hGDF8 peptide 12 (73-90), C-terminal biotinylated (human, cysteine pairing not given here).
T7 construct: also called peptide 12 C-term
T7 peptide: CCTPTKMSPINMLYFNGK-biotin
Put plainly: Luminex peptide beads.
Excerpt: as §1

In test [7] the target is T8, hGDF8 peptide 13 (75-105), unmodified (human).
T8 peptide: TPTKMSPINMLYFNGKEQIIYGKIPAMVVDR
Put plainly: Luminex peptide beads.
Excerpt: as §1

Test [8] addresses T9, hGDF8 peptide 14 (91-105), unmodified (human).
T9 peptide: EQIIYGKIPAMVVDR
As to the kind of experiment: Luminex peptide beads.
Excerpt: as §1

For test [9], the target named is T10, hGDF8 peptide 3 (17-42), N-terminal biotinylated (human, N-terminal biotin).
T10 construct: also called peptide 3 N-term
T10 peptide: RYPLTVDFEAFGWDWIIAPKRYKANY
Put plainly: Luminex peptide beads.
Excerpt: as §1

For test [10], the target named is T11, hGDF8 peptide 12 (73-90), N-terminal biotinylated (human, cysteine pairing not given here).
T11 construct: also called peptide 12 N-term
T11 peptide: Biotin-CCTPTKMSPINMLYFNGK
Put plainly: Luminex peptide beads.
Excerpt: as §1

Test [11] has as its target T12, hGDF8 peptide 1 (1-14), unmodified (human).
T12 peptide: DFGLDCDEHSTESR
As to the kind of experiment: Luminex peptide beads.
Excerpt: as §1

Test [12] has as its target T13, hGDF8 peptide 14 (91-105), N-terminal biotinylated (human).
T13 construct: also called peptide 14 N-term
T13 peptide: Biotin-EQIIYGKIPAMVVDR
As to the kind of experiment: Luminex peptide beads.
Excerpt: as §1

For test [13], the target named is T14, hGDF8 peptide 3 (17-42), C-terminal biotinylated (human, C-terminal biotin).
T14 construct: also called peptide 3 C-term
T14 peptide: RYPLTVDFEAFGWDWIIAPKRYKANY
Put plainly: Luminex peptide beads.
Excerpt: as §1

The target in test [14] is T15, hGDF8 peptide 2 (1-18), C-terminal biotinylated (human, cysteine pairing not given here).
T15 construct: also called peptide 2 C-term
T15 peptide: DFGLDCDEHSTESRCCRY-biotin
As to the kind of experiment: Luminex peptide beads.
Excerpt: as §1

Test [15] deals with T1, Human GDF8 homodimer (mature human …). Put plainly: SPR Biacore T100, captured on anti-hFc, 37°C. How it is done:
(§2) Additional antigen binding experiments were conducted in which GDF8 and GDF11 were applied over a surface of selected anti-GDF8 antibodies and control antibodies at 25° C. and 37° C. Equilibrium dissociation constants (KD values) for antigen binding to selected antibodies were determined by surface kinetics using a real-time biosensor surface plasmon resonance assay (BIACORE™ T100). […] Various concentrations (2.5-0.625 nM, 2-fold dilutions) of hGDF8 homodimer or hGDF11 homodimer (or in some experiments, Activin A) were injected over the captured antibody surfaces, and antigen-antibody binding and dissociation were monitored in real time. Kinetic analysis was performed to calculate KD, dissociation rate constants (kd), association rate constants (ka) and half-life of antigen/antibody complex dissociation. (NB=no binding observed).

A further test deals with T16, Activin A (UniProt P08476 311-426).
T16 sequence (looked up): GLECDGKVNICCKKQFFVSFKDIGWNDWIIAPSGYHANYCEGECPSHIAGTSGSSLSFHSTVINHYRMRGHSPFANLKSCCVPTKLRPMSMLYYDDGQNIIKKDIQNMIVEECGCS
As to the kind of experiment: SPR Biacore T100, 25°C. As for the experimental part:
as §2

The target of test [16] is T1, Human GDF8 homodimer (mature human …). Put plainly: SPR Biacore T100, captured on anti-hFc, 25°C. How it is done: as §2

B1: H4H1657N2 (antibody, V domains shown)
VH: EVQVLESGGDLVQPGGSLRLSCAASGFTFSAYAMTWVRQAPGKGLEWVSAISGSGGSAYYADSVKGRFTISRDNSKNTVYLQMNSLRAEDTAVYYCAKDGAWKMSGLDVWGQGTTVIVSS
VL: DIQMTQSPASLSASVGDRVTITCRASQDISDYLAWYQQKPGKIPRLLIYTTSTLQSGVPSRFRGSGSGTDFTLTISSLQPEDVATYYCQKYDSAPLTFGGGTKVEIK
notes: captured by anti-hFc, so human Fc
As for B1, the “IC50, luciferase bioassay, 0.5 nM GDF8” value in test [1] amounted to 0.78 nM. The binding result with hGDF11 homodimer is “no binding”; in test [2], “no binding (tested: 2.5 µg/ml)”; in test [3], “no binding (tested: 2.5 µg/ml)”; in [4] it was “no binding (tested: 2.5 µg/ml)”; in [5], “no binding (tested: 2.5 µg/ml)”; in [6], “no binding (tested: 2.5 µg/ml)”. Also, the binding result in [7], in test [8], in test [9], in test [10], in test [11] and in test [12] was “no binding (tested: 2.5 µg/ml)” throughout. The binding result is recorded as “no binding (tested: 2.5 µg/ml)” in test [13], “no binding (tested: 2.5 µg/ml)” in test [14] and “no binding (tested: 2.5-0.625 nM)” with Activin A. For the same molecule, the Kd in test [15] amounted to 0.0379 nM; in [16], 0.0283 nM. Moreover, the results for the T1/2 in test [15] and in [16] were 1.52 h and 3.37 h, respectively.
